Measured values reported in publication PMC5785501, “Crystal structure of lipid A disaccharide synthase LpxB from Escherichia coli” (Nature Communications, 2018).
Positions count from the first letter of the chain named. Numbers in names are those of the source.

B1: LpxB7S (LpxB6S with M207S) (enzyme, Escherichia coli, UniProt P10441 1-382, looked up)
chain: MTEQRPLTIALVAGETSGDILGAGLIRALKEHVPNARFVGVAGPRMQAEGCEAWYEMEELAVMGISESSGRSRRSSHIRADLTKRFGELKPDVFVGIDAPDFNITLEGNLKKQGIKTIHYVSPSVWAWRQKRVFKIGRATDLVLAFLPFEKAFYDKYNVPCRFIGHTMADAMPLDPDKNAARDVLGIPHDAHCLALLPGSRGAEVESLSADFLKTAQLLRQTYPDLEIVVPLVNAKRREQFERIKAEVAPDLSVHLLDGMGREAMVASDAALLASGTAALECMLAKCPMVVGYRMKPFTFWLAKRLVKTDYVSLPNLLAGRELVKELLQEECEPQKLAAALLPLLANGKTSHAMHDTFRELHQQIRCNADEQAAQAVLELAQ
notes: lipid A disaccharide synthase LpxB, Escherichia coli; Native LpxB7S, apo and soaked with UDP-GlcNAc (UDP seen); also called LpxB6SM207S; source: E. coli BL21 (DE3), purified (Ni-NTA, Ulp1 cleavage, Superdex 200); not shown: His tag, N-terminal, cleaved; SUMO, N-terminal, cleaved
B2: LpxB6S (E. coli lipid A disaccharide synthase LpxB with V66S, V68S, L69S, L72S, L75S, L76S) (enzyme, Escherichia coli, UniProt P10441 1-382, looked up)
chain: B1 chain with S207M
notes: lipid A disaccharide synthase LpxB, Escherichia coli; residues up to 382 named in the structure; the gene was cloned from strain BL21; also called soluble LpxB; solubilized LpxB; source: E. coli BL21 (DE3), purified (Ni-NTA, Ulp1 cleavage, Superdex 200); not shown: His tag, N-terminal, cleaved; SUMO, N-terminal, cleaved

Assays:
[1] = molecular target: the molecule itself; test: crystal structure; X-ray, one molecule in the asymmetric unit, dimer by crystal symmetry; LiCl, PEG 4000, 0.1 M Tris-HCl pH 8.6; apo and soaked with 10 mM UDP-GlcNAc
[2] = molecular target: the molecule itself; test: AUC; LpxB6S at 1 mg/ml, 5,000-16,000 r.p.m. for 10 h each, absorbance at 280 nm; mass modelled

| Protein | binding result [1] | stoichiometry N [2] |
| --- | --- | --- |
| B1 | binds |  |
| B2 |  | 2 |
